The values that follow come from patent US20240301052A1 (LANOVA MEDICINES DEVELOPMENT, published 2024).

Read-outs that look alike come from different tables or passages of the source.

In test [1] the target is T1, human SLC34A2 (human, UniProt O95436 1-690).
T1 construct: whole, on cells; also called human solute carrier 34 A2; NaPi2b
T1 sequence (looked up): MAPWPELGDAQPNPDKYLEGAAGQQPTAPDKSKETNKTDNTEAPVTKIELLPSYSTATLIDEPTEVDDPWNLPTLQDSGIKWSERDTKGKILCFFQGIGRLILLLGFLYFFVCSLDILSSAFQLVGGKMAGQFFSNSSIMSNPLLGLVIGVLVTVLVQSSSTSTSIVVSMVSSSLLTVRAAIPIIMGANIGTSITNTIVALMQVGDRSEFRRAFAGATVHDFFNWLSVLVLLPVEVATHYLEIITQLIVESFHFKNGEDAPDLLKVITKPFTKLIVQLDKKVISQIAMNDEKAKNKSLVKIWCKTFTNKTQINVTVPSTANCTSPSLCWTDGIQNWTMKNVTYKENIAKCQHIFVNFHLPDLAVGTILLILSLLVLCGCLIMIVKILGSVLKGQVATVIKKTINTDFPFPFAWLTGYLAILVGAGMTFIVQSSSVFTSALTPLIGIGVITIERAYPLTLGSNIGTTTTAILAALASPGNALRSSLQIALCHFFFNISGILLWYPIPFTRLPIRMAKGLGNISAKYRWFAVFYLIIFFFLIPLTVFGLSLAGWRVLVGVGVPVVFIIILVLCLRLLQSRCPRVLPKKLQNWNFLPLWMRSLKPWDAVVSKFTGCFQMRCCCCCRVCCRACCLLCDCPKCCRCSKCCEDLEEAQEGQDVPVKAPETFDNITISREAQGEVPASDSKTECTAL
Kind of test: FACS, RMG-1 cells. How it is done: (§1) In another testing, cell based binding of hu Abs on human SLC34A2 expressing cells were assessed using flow cytometry. Briefly, the HEK293/H_SLC34A2, OVCAR3 and RMG-1 cells were incubated with hu Abs. After incubation at 4° C. for 60 minutes, the cells were washed with FACS buffer twice, then stained with fluorescent conjugated secondary antibody at 4° C. for 30 minutes. After that the cells were washed twice and analyzed by flow cytometry.

The target in test [2] is T1, human SLC34A2. Briefly: FACS, OVCAR3 cells.
In test [3] the target is T1, human SLC34A2. Kind of test: FACS, OVCAR3 cells. How it is done: The binding of these humanized antibodies to OVCAR3 cells was evaluated as described above, and the results are shown in FIG. 12A-D and Tables 16A-D.
This is another data set of the same source.

The target in test [4] is T1, human SLC34A2. Kind of test: FACS, OVCAR3 cells. The procedure: as §1
This is another data set of the same source.

The target in test [5] is T1, human SLC34A2. Kind of test: cell-based or functional assay.
Test [6] has as its target T1, human SLC34A2. Kind of test: FACS, HEK293/human SLC34A2 cells. The procedure: The PTM-derisked VH chains were first tested for their impact on target binding. Cell based binding of PTM Abs on human SLC34A2 expressing cells were assessed using flow cytometry. Briefly, the HEK293/H_SLC34A2 cells were incubated with PTM Abs (from 200 nM, 4 folds dilution, 8 points). After incubation at 4° C. for 60 minutes, the cells were washed with FACS buffer twice, then stained with fluorescent conjugated secondary antibody at 4° C. for 30 minutes. After that the cells were washed twice and analyzed by flow cytometry.

Test [7] addresses T1, human SLC34A2. Kind of test: FACS, HEK293/human SLC34A2 cells. How it is done:
as §1
The source holds these as a separate data set.

Test [8] concerns the target T2, Rhesus SLC34A2 (Rhesus, UniProt F7HDA3 1-690).
T2 construct: whole, on cells
T2 sequence: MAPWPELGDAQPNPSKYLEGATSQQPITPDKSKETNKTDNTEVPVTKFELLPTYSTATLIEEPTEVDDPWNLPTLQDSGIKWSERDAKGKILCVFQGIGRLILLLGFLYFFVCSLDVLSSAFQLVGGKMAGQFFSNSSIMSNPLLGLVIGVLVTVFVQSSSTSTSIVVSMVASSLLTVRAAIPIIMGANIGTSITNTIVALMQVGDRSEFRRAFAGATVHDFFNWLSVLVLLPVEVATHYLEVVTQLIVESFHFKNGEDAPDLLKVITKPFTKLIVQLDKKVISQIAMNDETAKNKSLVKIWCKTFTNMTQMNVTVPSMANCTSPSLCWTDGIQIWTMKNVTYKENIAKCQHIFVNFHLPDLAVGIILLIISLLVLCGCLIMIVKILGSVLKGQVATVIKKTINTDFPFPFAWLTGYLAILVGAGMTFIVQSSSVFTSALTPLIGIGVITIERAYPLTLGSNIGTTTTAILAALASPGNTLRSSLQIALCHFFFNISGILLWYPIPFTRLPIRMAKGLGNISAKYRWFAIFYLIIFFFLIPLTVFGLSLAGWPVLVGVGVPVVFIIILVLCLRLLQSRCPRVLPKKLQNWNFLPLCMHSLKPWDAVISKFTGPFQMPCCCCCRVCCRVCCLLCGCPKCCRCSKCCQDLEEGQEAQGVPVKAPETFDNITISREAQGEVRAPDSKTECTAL
Kind of test: FACS, HEK293/Rhesus SLC34A2 cells.

In test [9] the target is T2, Rhesus SLC34A2. Kind of test: FACS, HEK293/Rhesus SLC34A2 cells. The source holds these as a separate data set.
Test [10] has as its target T1, human SLC34A2. Kind of test: FACS, RMG-1 cells. In short, it runs like this: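 Flow-cytometric binding of chimeric antibodies (8-point, 4-fold dilutions from 200 nM) to RMG-1 cells, 60 min at 4° C, followed by fluorescent secondary antibody for 30 min at 4° C.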
The source holds these as a separate data set.

Test [11] has as its target T1, human SLC34A2. Briefly: FACS, OVCAR3 cells. In short, it runs like this: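 Flow cytometry binding: cells (OVCAR3, or HEK293 transfected with human SLC34A2) exposed 60 min at 4° C to chimeric hIgG1, 8-point 4-fold series starting 200 nM. Washed, stained 30 min at 4° C with fluorescent anti-human secondary, then analysed.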
The source holds these as a separate data set.

Test [12] addresses T1, human SLC34A2. Briefly: cell-based or functional assay. The source holds these as a separate data set.
In test [13] the target is T1, human SLC34A2. Briefly: cell-based or functional assay. The source holds these as a separate data set.
The target in test [14] is T1, human SLC34A2. Briefly: FACS, HEK293/human SLC34A2 cells. How it is done:
Briefly, OVCAR3 cells or HEK293 cells expressing human SLC34A2 were incubated with chimeric antibodies (from 200 nM, 4 folds dilution, 8 points). After incubation at 4° C. for 60 minutes, the cells were washed with FACS buffer twice, then stained with fluorescent conjugated secondary antibody at 4° C. for 30 minutes. After that the cells were washed twice and analyzed by flow cytometry.
The source holds these as a separate data set.

Test [15] has as its target T2, Rhesus SLC34A2. Kind of test: FACS, HEK293/Rhesus SLC34A2 cells. How it is done:
Briefly, the Rhesus SLC34A2 expressing HEK293 engineering cells (HEK293/Rhesus_SLC34A2) were incubated with chimeric Abs (from 200 nM, 4 folds dilution, 8 points). After incubation at 4° C. for 60 minutes, the cells were washed with FACS buffer twice, then stained with fluorescent conjugated secondary antibody at 4° C. for 30 minutes. After that the cells were washed twice and analyzed by flow cytometry.
This is another data set of the same source.

The next test concerns the target T3, Cynomolgus SLC34A2 (Cynomolgus, UniProt A0A2K5UHY1 1-690).
T3 construct: whole, on cells; also called Cyno SLC34A2
T3 sequence: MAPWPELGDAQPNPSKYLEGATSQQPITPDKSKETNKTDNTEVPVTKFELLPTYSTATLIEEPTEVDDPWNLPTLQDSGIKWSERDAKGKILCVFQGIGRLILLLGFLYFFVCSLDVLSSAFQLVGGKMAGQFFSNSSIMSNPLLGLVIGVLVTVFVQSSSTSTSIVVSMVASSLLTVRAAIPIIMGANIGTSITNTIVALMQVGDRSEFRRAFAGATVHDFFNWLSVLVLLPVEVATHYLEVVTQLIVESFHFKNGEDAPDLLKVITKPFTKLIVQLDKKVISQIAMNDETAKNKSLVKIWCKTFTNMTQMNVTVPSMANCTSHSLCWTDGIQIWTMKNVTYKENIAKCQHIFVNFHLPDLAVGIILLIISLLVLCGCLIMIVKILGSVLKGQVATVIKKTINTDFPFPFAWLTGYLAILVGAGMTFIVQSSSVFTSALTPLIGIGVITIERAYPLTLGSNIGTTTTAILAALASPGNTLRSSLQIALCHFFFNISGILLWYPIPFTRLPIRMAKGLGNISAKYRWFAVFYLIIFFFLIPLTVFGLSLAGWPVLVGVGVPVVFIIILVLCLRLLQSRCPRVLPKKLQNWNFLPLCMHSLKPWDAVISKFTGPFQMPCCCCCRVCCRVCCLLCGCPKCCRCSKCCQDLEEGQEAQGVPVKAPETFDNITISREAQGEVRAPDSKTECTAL
Kind of test: FACS, cells expressing Cynomolgus SLC34A2.

B1: 30H9B8F9 VH_P1/VL hIgG1 (antibody, V domains shown)
VH: QVQLQQPGAELVKPGASVKMSCKTSGYTFTTNNMHWVKQTPGQGLEWIGAIYPGSGATAYNQKFKGKATLTADKSSSTAYMQLSSLTSEASAVYYCARGMYGHGAMDYWGQGTSVIVSS
VL: DIVMTQSHKFMSRSVGDRVRITCKASQDVGTAVAWYQQKPGQSPKLLIYWATTRHSGVPDRFTGSGSGTDFIFTISNVQSEDLADYFCQQYSSNPLTFGAGTKLELK
notes: PTM-derisked chimeric, hIgG1; that P1 is the N=>S version follows from the humanized .p1 chains; also called 30H9B8F9.p1 hIgG1
As for B1, the EC50 with human SLC34A2 [1] turned out to be 1.09 nM; with human SLC34A2 [2], 1.5 nM; with human SLC34A2 [3], 0.68 nM; with human SLC34A2 [4], 0.37 nM; with human SLC34A2 [6], 0.89 nM; with human SLC34A2 [7] it was 1.18 nM. Further, the figures for the EC50 in the test with Rhesus SLC34A2 [8] and with Rhesus SLC34A2 [9] were 2 nM and 0.8 nM, respectively. The Top with human SLC34A2 [1] is 11100 MFI; with human SLC34A2 [7] it was 35700 MFI. Further, the “Top (MFI)” value in the test with human SLC34A2 [2] was found to be 70400 MFI; in the test with human SLC34A2 [3] it was 28700 MFI; in the test with human SLC34A2 [6], 31700 MFI; with Rhesus SLC34A2 [8], 47400 MFI; with Rhesus SLC34A2 [9], 17000 MFI. In the test with human SLC34A2 [5], the “ADCC reporter EC50” value came out at 2.52 nM. Besides, the “ADCC reporter Top (MFI)” value with human SLC34A2 [5] worked out at 126000 MFI.

B2: 62G10E4G8 VH_P3/VL hIgG1 (antibody, V domains shown)
VH: QVQLQQSGAEVVKPGASVKMSCKASGYTFPSYITHWVKQTPGQGLEWIGAIYPGNADTSYIQKFKGKATLTADKSSSTAYMQLSSLTSEDSAVYYCARGTYGTSAWFTYWGQGTLVTVSA
VL: DIVLTQSPATLSVTPGDSVSLSCRARQNIGNNLYWYQQKSHESPRLLIKYASQSISGIPSRFSGSGSGTDFTLTINSVETEDFGVYFCQQSFSWPLTFGAGTKLELK
notes: PTM-derisked chimeric, hIgG1; that P3 is the NA version follows from the humanized .p3 chains; also called 62G10E4G8.p3 hIgG1
Take B2: the EC50 is 14.8 nM in the test with human SLC34A2 [1]; 9.1 nM with human SLC34A2 [2]; 6.98 nM with human SLC34A2 [3]; 6.98 nM with human SLC34A2 [4]; 2.73 nM with human SLC34A2 [6]; 9.08 nM with human SLC34A2 [7]. Besides, the EC50 with Rhesus SLC34A2 [8] turned out to be 4.3 nM; with Rhesus SLC34A2 [9] it was 5 nM. The Top with human SLC34A2 [1] amounted to 11200 MFI; with human SLC34A2 [7], 35700 MFI. In addition, the “Top (MFI)” value in the test with human SLC34A2 [2] worked out at 72500 MFI; with human SLC34A2 [3], 30300 MFI; with human SLC34A2 [6], 30800 MFI; with Rhesus SLC34A2 [8], 36500 MFI; with Rhesus SLC34A2 [9], 14400 MFI. Besides, in the test with human SLC34A2 [5], the “ADCC reporter EC50” value amounted to 4.23 nM. In the test with human SLC34A2 [5], the “ADCC reporter Top (MFI)” value is 122000 MFI.

B3: xi90G10H7 hIgG1 (antibody, V domains shown)
VH: QVQLQQPGAVLVKPGASVKMSCKASGYTFTSYIIHWVKQTPGQGLEWVGAIYPGNGDASSIQKFKGKATLTVDKSSSTAYMQLSSLTSADSAVYYCARGHYYGSAAWFAYWGQGTLVTVSA
VL: DILLTQSPAILSVSPGERVSFSCRASQNIGTGIHWYQQRTNGSLRLLIKYASESISGIPSRFSGSGSGTDFTLSINSVESEDIADYYCQQSNSWPLTFGAGTKLELK
notes: chimeric, hIgG1
Take B3: the EC50 was 2.77 nM with human SLC34A2 [10]; 2.14 nM with human SLC34A2 [11]; 3.9 nM with human SLC34A2 [2]; 1.52 nM with human SLC34A2 [14]; 1.14 nM with human SLC34A2 [6]; 2.19 nM with Rhesus SLC34A2 [15]. The EC50 was 3.5 nM in the test with Rhesus SLC34A2 [8] and 2.4 nM with Cynomolgus SLC34A2. For the same molecule, the “Top (MFI)” value was found to be 9920 MFI with human SLC34A2 [10]; 43300 MFI with human SLC34A2 [11]; 72900 MFI with human SLC34A2 [2]; 114000 MFI with human SLC34A2 [14]; 32200 MFI with human SLC34A2 [6]; 18500 MFI with Rhesus SLC34A2 [15]. Moreover, the “Top (MFI)” value in the test with Rhesus SLC34A2 [8] is 47400 MFI; in the test with Cynomolgus SLC34A2, 4560 MFI. Also, in the test with human SLC34A2 [12], the “ADCC reporter EC50” value came out at 2.3 nM. Also, in the test with human SLC34A2 [12], the “ADCC reporter Top (MFI)” value worked out at 397000 MFI. In addition, the “cytotoxicity EC50” value with human SLC34A2 [13] amounted to 0.28 nM. Also, the “cytotoxicity Inhibition %” value in the test with human SLC34A2 [13] is 103%.
